Values of other authors in publication PMC7070747.

Legend:
[1] = biological target: Fibronectin extra domain B EDB (Homo sapiens) (UniProt P02751)
[2] = biological target: integrin αvβ5 (Homo sapiens) (UniProt P06756)
[3] = biological target: integrin αvβ3 (Homo sapiens) (UniProt P06756)

UniProt P02751, sequence (P02751 1266-1356): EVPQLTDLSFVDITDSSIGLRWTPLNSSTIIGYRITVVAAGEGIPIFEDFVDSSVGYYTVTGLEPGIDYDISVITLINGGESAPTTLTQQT

Row | Kd [1] [nM] | Kd [2] [nM] | Kd [3] [nM] | Substance
1 | 11000 | – | – | ZD2
2 | – | 62 | 18 | iRGD
